Experimental data taken from patent CN101605906A (MEDAREX INC, dated 2009).

Molecular target: T1, 人类CD70 (表达于细胞表面) (human, UniProt P32970 1-193)
T1 sequence: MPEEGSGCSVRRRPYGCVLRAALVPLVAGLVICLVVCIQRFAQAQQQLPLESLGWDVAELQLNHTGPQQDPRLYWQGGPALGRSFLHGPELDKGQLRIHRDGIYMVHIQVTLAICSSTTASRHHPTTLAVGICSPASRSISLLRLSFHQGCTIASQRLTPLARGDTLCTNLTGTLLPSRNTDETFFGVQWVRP
Assay: cell-based or functional assay

B1: 抗-CD70人类单克隆抗体2H5 (antibody, V domains shown)
VH: QVQLVESGGGVVQPGRSLRLSCAASGFTFSSYIMHWVRQAPGKGLEWVAVISYDGRNKYYADSVKGRFTISRDNSKNTLYLQMNSLRAEDTAVYYCARDTDGYDFDYWGQGTLVTVSS
VL: EIVLTQSPATLSLSPGERATLSCRASQSVSSYLAWYQQKPGQAPRLLIYDASNRATGIPARFSGSGSGTDFTLTISSLEPEDFAVYYCQQRTNWPLTFGGGTKVEIK
3 H-胸腺嘧啶核苷掺入 (Hum-Zap内化测定, 786-O细胞), EC50: 0.9 nM
